Results from publication PMC8476121 (2021).

Target: NB88
Test: SPR

- Kd: 3.9 nM
B1: CaSR ECD (extracellular domain of human calcium-sensing receptor) (domain or fragment)
chain: YGPDQRAQKKGDIILGGLFPIHFGVAAKDQDLKSRPESVECIRYNFRGFRWLQAMIFAIEEINSSPALLPNLTLGYRIFDTCNTVSKALEATLSFVAQNKIDSLNLDEFCNCSEHIPSTIAVVGATGSGVSTAVANLLGLFYIPQVSYASSSRLLSNKNQFKSFLRTIPNDEHQATAMADIIEYFRWNWVGTIAADDDYGRPGIEKFREEAEERDICIDFSELISQYSDEEEIQHVVEVIQNSTAKVIVVFSSGPDLEPLIKEIVRRNITGKIWLASEAWASSSLIAMPQYFHVVGGTIGFALKAGQIPGFREFLKKVHPRKSVHNGFAKEFWEETFNCHLQEGAKGPLPVDTFLRGHEESGDRFSNSSTAFRPLCTGDENISSVETPYIDYTHLRISYNVYLAVYSIAHALQDIYTCLPGRGLFTNGSCADIKKVEAWQVLKHLRHLNFTNNMGEQVTFDECGDLVGNYSIINWHLSPEDGSIVFKEVGYYNVYAKKGERLFINEEKILWSGFSREVPFSNCSRDCLAGTRKGIIEGEPTCCFECVECPDGEYSDETDASACNKCPDDFWSNENHTSCIAKEIEFLS
